Experimental data as given in patent US20240294611A1 (University of Texas, published 2024).
Several values for one entry are separate records, joined by “and”; a condition that tells them apart may be missing. Equal values may be shown once. Read-outs that look alike come from different tables or passages of the source.

Columns and labels:
[1] = biological target: T1, SARS-CoV-2 HexaPro S2 (isolated S2 domain) (SARS-CoV-2, UniProt P0DTC2 697-1208); assay: BLI equilibrium, IgG on anti-Fc tips
T1 construct: range 697-1208

[2] = biological target: T2, aglycosylated HexaPro (HexaPro treated with Endo H) (SARS-CoV-2, UniProt P0DTC2 14-1208); assay: BLI equilibrium, IgG on anti-Fc tips
[3] = biological target: T2, aglycosylated HexaPro (HexaPro treated …); assay: BLI equilibrium, IgG on anti-Fc sensor
[4] = biological target: T1, SARS-CoV-2 HexaPro S2 (isolated S2 …); assay: BLI; column head says Fab Kd, footnote says immobilized IgG
HexaPro E1031R = HexaPro E1031R (SARS-CoV-2, UniProt P0DTC2 14-1208)
[5] = biological target: T3, wild-type SARS-CoV-2 spike without stabilizing modifications (on cells or pseudovirus) (SARS-CoV-2, UniProt P0DTC2 14-1273); assay: cell-based or functional assay
[6] = biological target: T4, SARS-CoV-2 D614G spike without stabilizing modifications (on cells or pseudovirus) (SARS-CoV-2, UniProt P0DTC2 14-1273); assay: cell-based or functional assay
[7] = biological target: T3, wild-type SARS-CoV-2 spike without …; assay: cell-based or functional assay; remark: listed apart in the source
[8] = biological target: T4, SARS-CoV-2 D614G spike without …; assay: cell-based or functional assay; remark: listed apart in the source
[9] = biological target: SARS-CoV-2 B.1.1.7 (variant Alpha) spike on pseudovirus (SARS-CoV-2, UniProt P0DTC2 14-1273); assay: cell-based or functional assay
[10] = biological target: T1, SARS-CoV-2 HexaPro S2 (isolated S2 …)
[11] = biological target: T1, SARS-CoV-2 HexaPro S2 (isolated S2 …); remark: listed apart in the source
[12] = biological target: T1, SARS-CoV-2 HexaPro S2 (isolated S2 …); remark: listed apart in the source
[13] = biological target: T1, SARS-CoV-2 HexaPro S2 (isolated S2 …); remark: listed apart in the source
[14] = biological target: T1, SARS-CoV-2 HexaPro S2 (isolated S2 …); remark: listed apart in the source
[15] = biological target: soluble SARS-CoV-2 spike protein variant 4PDS (SARS-CoV-2, UniProt P0DTC2 14-1208)

B1: 4H2 full-length antibody (mouse variable region-human IgG1 constant region chimera) (antibody, V domains shown)
VH: EVQVVESGGGLVQPGGSRKLSCAASGFTFSSYGMSWVRQTPDKRLEWVATISSGGSYTYYPDSVKGRFTISRDNAKNNLYLQMSSLKSEDTAMYYCARDGYGNYVGMDYWGQGTSVTVSS
VL: DIVLTQSPAIMSASPGEKVTITCSASSSVSYMHWFQQKPGTSPKLWIYSTSNLASGVPARFSGSGSGTSYSLTISSMEAEDAATYYCQQWSSNSYTFGGGTKLEIKR
Which results are given for B1?
Kd [1]: 63 nM; Kd [2]: 9 nM; Kd [3]: 9 nM; Kd [4]: 63 nM

B2: 3A3 full-length antibody (mouse variable region-human IgG1 constant region chimera) (antibody, V domains shown)
VH: QVQLQQSGAELLKPGASVKLSCTASGFNIKDTYIHWLKQRPEQGLEWIGRIGPAIGNTIYAPKFQGKATITTDTSSNTAYLQLSSLTSEDTAVYYCARYYGSSYYYFDYWGQGTTLTVSS
VL: DIVMTQSAPSVPVTPGESVSISCRSSKSLLHSNGNTYLYWFLQRPGQSPQLLIYRMSNLASGVPDRFSGSGSGTAFTLRISRVEAEDVGVYYCMQYLEYPLTFGAGTKLELKR
For B2, which Kd (HexaPro E1031R) is on record?
The Kd was 1.5 nM.

What about the kon (HexaPro E1031R) of the same binder?
The kon was 2.88e+06 M⁻¹ s⁻¹.

And the “IC50 of pseudovirus entry (FIG. 3A)” value [5]?
The value was 25.6 µg/mL.

And the “IC50 of pseudovirus infection (FIG. 3A)” value [5]?
The value was roughly 173 nM.

What about the “IC50 of pseudovirus entry (FIG. 3A)” value [6] of the same binder?
The value was 2.05 µg/mL.

What about the “IC50 of pseudovirus infection (FIG. 3A)” value [6] of the same binder?
Its value is roughly 14 nM.

What about the “Pseudovirus IC50” value [7] of the same binder?
Its value is 212 nM.

And the “Pseudovirus IC50” value [8]?
Its value is 94 nM.

And the “Pseudovirus IC50” value [9]?
The value was 119 nM.

And the Kd [2]?
The Kd was 7.9 nM.

And the Kd [3]?
The Kd was 8.4 nM.

B3: 3A3 Fab (mouse Fab fragment) (Fab, V domains shown)
VH: QVQLQQSGAELLKPGASVKLSCTASGFNIKDTYIHWLKQRPEQGLEWIGRIGPAIGNTIYAPKFQGKATITTDTSSNTAYLQLSSLTSEDTAVYYCARYYGSSYYYFDYWGQGTTLTVSS
VL: DIVMTQSAPSVPVTPGESVSISCRSSKSLLHSNGNTYLYWFLQRPGQSPQLLIYRMSNLASGVPDRFSGSGSGTAFTLRISRVEAEDVGVYYCMQYLEYPLTFGAGTKLELKR
Which results are given for B3?
Kd [10]: ~2.5 nM; koff [10]: 0.005 s⁻¹; kon [10]: ~2e+06 M⁻¹ s⁻¹; Kd [11]: 2.2 nM and 3.2 nM; Kd [12]: 3.2 nM; Kd [13]: 2.2 nM; koff [13]: 0.0049 s⁻¹; kon [13]: 2.3e+06 M⁻¹ s⁻¹; Kd [14]: 3.6 nM; koff [14]: 0.0046 s⁻¹; kon [14]: 1.3e+06 M⁻¹ s⁻¹

B4: 4A5 full-length antibody (mouse variable region-human IgG1 constant region chimera) (antibody, V domains shown)
VH: QVQLQQSGAELAKPGASVKMSCKASGYTFTSYWMHWVKQRPGQGLEWVGMIDPSNSETRLNQKFKDKATLNVDKSSNTAYMQLSSLTSEDSAVYYCARLGRYWGQGTTLTVSS
VL: DIVMTQSHKFMSTSVGDRVSITCKASQNVGANVAWYQQKPGQSPKALIYSASYRYSGVPDRFTGSGSGTDFTLTISNVQSEDLAEYFCQQYNSYPYTSGGGTKLEIKR
What does the source list for B4?
Kd [1]: 11 nM; Kd [2]: 10 nM; Kd [3]: 10 nM; Kd [4]: 11 nM

B5: combination of AM3A3-5 heavy chain with unmodified hu3A3 (WT; ven3A3) light chain (antibody, V domains shown)
VH: QVQLVQSGAEVLKPGASVKLSCKASGFNIKDTYIHWLKQAPGQRLEWIGRIGPAIGNTIYAPKFQGKATITTDTSASTAYLELSSLRSEDTAVYYCARYYGYAYYYFDYWGQGTTVTVSS
VL: DIVMTQSPLSVPVTPGEPVSISCRSSKSLLHSNGNTYLYWFLQKPGQSPQLLIYRMSNLASGVPDRFSGSGSGTAFTLKISRVEAEDVGVYYCMQYLEYPLTFGAGTKLEIK
B5 was tested. Which “Fold improvement over WT/WT” value [15] did it give?
The value was 0.5 fold.

B6: combination of AM3A3-3 heavy chain with AM3A3-5 light chain (antibody, V domains shown)
VH: QVQLVQSGADVLKPGASVKLSCKASGFNIKNTYIHWLKQAPGQRLEWIGRIGPAIGNTIYAPKFQGKATITTDTSASTAYLELSSLRSEDTAVYYCARYYGSSYYYLDYWGQGTTVTVSS
VL: DIVMTQSPLSVPVTPGEPVSISCRSSKSLLHSNGNTYLYWFLQKPGQSPQLLIARMSTLASGVPDRFSGSGSGTAFTLKISRVEAEDVGVYYCMQYLEYPLTFGAGTKLEIK
How did the “Fold improvement over WT/WT” value [15] turn out when B6 was run?
The value was 95.6 fold.

B7: humanized 3A3 with ven3A3VH and ven3A3VL (antibody, V domains shown)
VH: QVQLVQSGAEVLKPGASVKLSCKASGFNIKDTYIHWLKQAPGQRLEWIGRIGPAIGNTIYAPKFQGKATITTDTSASTAYLELSSLRSEDTAVYYCARYYGSSYYYFDYWGQGTTVTVSS
VL: DIVMTQSPLSVPVTPGEPVSISCRSSKSLLHSNGNTYLYWFLQKPGQSPQLLIYRMSNLASGVPDRFSGSGSGTAFTLKISRVEAEDVGVYYCMQYLEYPLTFGAGTKLEIK
B7 was tested. Which “Fold improvement over WT/WT” value [15] did it give?
The value was 1 fold.

B8: combination of unmodified hu3A3 (WT; ven3A3) heavy chain with AM3A3-3 light chain (antibody, V domains shown)
VH: QVQLVQSGAEVLKPGASVKLSCKASGFNIKDTYIHWLKQAPGQRLEWIGRIGPAIGNTIYAPKFQGKATITTDTSASTAYLELSSLRSEDTAVYYCARYYGSSYYYFDYWGQGTTVTVSS
VL: DIVMTQSPLSVPVTPGEPVSISCRSSKSLHHSNGNTYLYWFLQKPGQSPQLLIYRMSNLASGVPDRFSGSGNGTAFTLKISRVEAEDVGVYYCMQYLEYPLTFDAGTKLEIK
B8 was tested. Which “Fold improvement over WT/WT” value [15] did it give?
The value was 13.7 fold.

B9: AM3A3-5 (affinity matured humanized 3A3) (antibody, V domains shown)
VH: QVQLVQSGAEVLKPGASVKLSCKASGFNIKDTYIHWLKQAPGQRLEWIGRIGPAIGNTIYAPKFQGKATITTDTSASTAYLELSSLRSEDTAVYYCARYYGYAYYYFDYWGQGTTVTVSS
VL: DIVMTQSPLSVPVTPGEPVSISCRSSKSLLHSNGNTYLYWFLQKPGQSPQLLIARMSTLASGVPDRFSGSGSGTAFTLKISRVEAEDVGVYYCMQYLEYPLTFGAGTKLEIK
With B9 as the binder, how does the “Fold improvement over WT/WT” value [15] read?
Its value is 50.5 fold.

B10: combination of unmodified hu3A3 (WT; ven3A3) heavy chain with AM3A3-5 light chain (antibody, V domains shown)
VH: QVQLVQSGAEVLKPGASVKLSCKASGFNIKDTYIHWLKQAPGQRLEWIGRIGPAIGNTIYAPKFQGKATITTDTSASTAYLELSSLRSEDTAVYYCARYYGSSYYYFDYWGQGTTVTVSS
VL: DIVMTQSPLSVPVTPGEPVSISCRSSKSLLHSNGNTYLYWFLQKPGQSPQLLIARMSTLASGVPDRFSGSGSGTAFTLKISRVEAEDVGVYYCMQYLEYPLTFGAGTKLEIK
For B10, which “Fold improvement over WT/WT” value [15] is on record?
The value was 63.7 fold.

B11: combination of AM3A3-5 heavy chain with AM3A3-3 light chain (antibody, V domains shown)
VH: QVQLVQSGAEVLKPGASVKLSCKASGFNIKDTYIHWLKQAPGQRLEWIGRIGPAIGNTIYAPKFQGKATITTDTSASTAYLELSSLRSEDTAVYYCARYYGYAYYYFDYWGQGTTVTVSS
VL: DIVMTQSPLSVPVTPGEPVSISCRSSKSLHHSNGNTYLYWFLQKPGQSPQLLIYRMSNLASGVPDRFSGSGNGTAFTLKISRVEAEDVGVYYCMQYLEYPLTFDAGTKLEIK
How did the “Fold improvement over WT/WT” value [15] turn out when B11 was run?
The value was 4.3 fold.

B12: combination of AM3A3-3 heavy chain with unmodified hu3A3 (WT; ven3A3) light chain (antibody, V domains shown)
VH: QVQLVQSGADVLKPGASVKLSCKASGFNIKNTYIHWLKQAPGQRLEWIGRIGPAIGNTIYAPKFQGKATITTDTSASTAYLELSSLRSEDTAVYYCARYYGSSYYYLDYWGQGTTVTVSS
VL: DIVMTQSPLSVPVTPGEPVSISCRSSKSLLHSNGNTYLYWFLQKPGQSPQLLIYRMSNLASGVPDRFSGSGSGTAFTLKISRVEAEDVGVYYCMQYLEYPLTFGAGTKLEIK
Which “Fold improvement over WT/WT” value [15] does the source give for B12 here?
The value was 11.6 fold.

B13: AM3A3-3 (affinity matured humanized 3A3) (antibody, V domains shown)
VH: QVQLVQSGADVLKPGASVKLSCKASGFNIKNTYIHWLKQAPGQRLEWIGRIGPAIGNTIYAPKFQGKATITTDTSASTAYLELSSLRSEDTAVYYCARYYGSSYYYLDYWGQGTTVTVSS
VL: DIVMTQSPLSVPVTPGEPVSISCRSSKSLHHSNGNTYLYWFLQKPGQSPQLLIYRMSNLASGVPDRFSGSGNGTAFTLKISRVEAEDVGVYYCMQYLEYPLTFDAGTKLEIK
How did the “Fold improvement over WT/WT” value [15] turn out when B13 was run?
The value was 63.3 fold.
